Data set [1] is described as follows: Viscosity measurement of medium composition (E type viscometer). It counts as physicochemical. The following applies: 37°C, 100 rpm. As for the experimental part:
The viscosity of the liquid containing the structure can be measured, for example, by the method described in the below-mentioned Examples. Specifically, it can be measured under 37° C. conditions and using an E-type viscosity meter (manufactured by Toki Sangyo Co., Ltd., TV-22 type viscosity meter, model: TVE-22L, corn roter: standard roter 1° 34′×R24, rotation number 100 rpm).
(§1) This aqueous solution was allowed to cool to room temperature with stirring, and sterilized at 121° C. for 20 min in an autoclave. […] The viscosity of the medium compositions was measured using an E type viscometer (manufactured by Toki Sangyo Co., Ltd., Viscometer TVE-22L, standard roter 1° 34′×R24) under 37° C. condition at 100 rpm for 5 min.
The medium compositions prepared above were subjected to a suspension test of HeLa cell spheres and a viscosity measurement, in the same manner as with the deacylated gellan gum-containing medium. The viscosity of 1.0% (w/v) methylcellulose was measured at 50 rpm due to the measurement range of the apparatus.
In the same manner as in Experimental Example 2, spheres of HeLa cells were formed, and several tens of the spheres were added to each medium (1 mL) prepared above, the mixture was stood still at 37° C. for 1 hr, and the suspended state of the sphere cells was visually observed. […] Furthermore, it was confirmed that addition of an equal amount of the medium to the cell suspension and centrifugation (300 to 400G, 5 min) thereof result in sedimentation and recovery of the spheres of HeLa cells. The suspended state of the spheres of HeLa cells cultured in the medium composition of the present invention is each shown in FIG. 11.
(§2) The final concentration of polysaccharide was set to 0.1% (w/v) for xanthan gum, sodium alginate, locust bean gum, 0.2% (w/v) for methylcellulose, and 0.05% (w/v) for K-carageenan and diutan gum. The state of each medium composition and the viscosity measured by a method similar to that in Analysis Example 1 are shown in Tables 11-16.

Data set [2] is described as follows: State of medium composition (liquid/solid). In kind it is physicochemical. As for the experimental part:
as §1
DMEM/F-12 medium (manufactured by Aldrich, 100 mL) was placed in a 200 mL pear-shaped flask, and methylcellulose (M0387, manufactured by Aldrich, […]) was added. The mixture was stirred while cooling in an ice bath to dissolve methylcellulose. Using this solution, medium compositions added with the aqueous methylcellulose solution at a final concentration of 0.1, 0.3, 0.6 or 1.0% (w/v) were prepared.
A 10-fold concentration of DMEM/F-12 medium (manufactured by Aldrich, 1 mL), a buffer for reconstitution (manufactured by Nitta Gelatin Inc., 1 mL) and pure water (1.5 mL) were added to 0.3% cell matrix type I-A (manufactured by Nitta Gelatin Inc., 6.5 mL), and the mixture was stirred in an ice to give a 0.2% collagen-containing medium. Similarly, medium compositions added with collagen at a final concentration of 0.01, 0.05, 0.1 or 0.2% (w/v) were prepared.
as §2

Data set [3] concerns HepG2 cells. Description: Toxicity test of compound to hepatocytes: lactic acid dehydrogenase (LDH) activity measurement. In kind it is cell-based, human. Particulars: 1 day, DAG 0.015%. The method, then:
(§3) This aqueous solution was sterilized at 121° C. for 20 min in an autoclave. On the other hand, HepG2 cells was mixed with DMEM medium (manufactured by WAKO) at 100000 cells/mL, and the cell suspension was dispensed to the wells of a 96-well flat bottom ultra low adhesion surface microplate (manufactured by Corning Incorporated, #3474) at 100 μL/well. […] Successively, this plate was cultured by being stood still in a CO2 incubator (37° C., 5% CO2) for 1 day.
To the culture medium (100 μL) after culturing for 1 day was added DMEM medium (manufactured by WAKO, 100 μL), and the plate was centrifuged by 440G for 15 min. The supernatant (100 μL) was dispensed to a 96-well titer plate (manufactured by Corning Incorporated), a reaction mixture (100 μL) in a cytotoxicity detection kit (manufactured by Roche Applied Science) was added, and the mixture was stood under shading at room temperature for 30 min. Successively, according to the protocol of the above-mentioned kit, the absorbance at 490 nm (reference; 600 nm) was measured by an absorbance spectrometer (manufactured by Molecular Devices, SPECTRA MAX 190), whereby the rate of the disordered cell, that is, cell disorder rate (%), was measured.

The subject of data set [4] is HepG2 cells. Nature of the data set: Toxicity test of compound to hepatocytes: number of viable cells (Cell Titer-Glo). It counts as cell-based, human. The following applies: 1 day, DAG 0.015%, no addition = 1. The method, then: as §3
The culture medium (50 μL) after culturing for 1 day was dispensed to a 96-well titer plate (manufactured by Corning Incorporated), to this culture medium was added a Cell Titer-Glo (registered trade mark) reagent (manufactured by Promega, 50 μL), and the mixture was incubated at room temperature for 10 min. The luminescence intensity was measured by a multiplate reader is (manufactured by Molecular Devices, FlexStation3) to measure the number of viable cells.

These results are taken from patent publication US11371013B2, “Culture medium composition and method of culturing cell or tissue using thereof” (Nissan Chemical Industries, Ltd., priority 2012, dated 2022).

Turning to collagen, the viscosity in data set [1] (0.01% (w/v) in DMEM/F-12) is given as 1.18 mPa · s; in data set [1] (0.05% (w/v) in DMEM/F-12), “unmeasurable”; in data set [1] (0.1% (w/v) in DMEM/F-12), “unmeasurable”; in data set [1] (0.2% (w/v) in DMEM/F-12), “unmeasurable”. The state entry is listed as “liquid” in data set [2] (0.01% (w/v) in DMEM/F-12), “liquid/solid” in data set [2] (0.05% (w/v) in DMEM/F-12), “solid (gel)” in data set [2] (0.1% (w/v) in DMEM/F-12) and “solid (gel)” in data set [2] (0.2% (w/v) in DMEM/F-12).
With `Cc1c(C)c2c(c(C)c1O)CCC(C)(COc1ccc(CC3SC(=O)NC3=O)cc1)O2` (stereo not shown) [Troglitazone], the cell disorder rate in the data set with HepG2 cells [3] (20 μM) turned out to be 2.68%; in the data set with HepG2 cells [3] (40 μM), 14.7%; in the data set on HepG2 cells [3] (60 μM), 22.5%; in the data set with HepG2 cells [3] (100 μM) it was 60.7%. The relative cell number is 0.68 in the data set with HepG2 cells [4] (20 μM), 0.50 in the data set with HepG2 cells [4] (40 μM), 0.48 with HepG2 cells [4] (60 μM) and 0.39 in the data set on HepG2 cells [4] (100 μM).
